Reference: patent publication US12644128B2, “Method for producing HSL protein having catalytic activity for 2-oxoglutaric acid-dependently oxidizing 4-HPPD inhibitor” (National Agriculture and Food Research Organization, priority 2017, dated 2026)

B1: OsHSL2 protein: rice-derived HSL protein, typically a protein having an amino acid sequence of SEQ ID NO: 6 (protein, listed as Oryza sativa)
chain: MADEPWRLPNIVQELAAGVQEPPSRYLQDLAGGDQLAGAEIPEPIPTIDLGRLSGSDGADEAAKLRSALQNWGLFLVSNHGVETSLIDAVIEAAREFFRQPVEEKKKLSNLIDGKRFQIEGYGNDPVQTKDQILDWSDRLHLKVEPECDRNLAFWPTHPKSFRDILHEYTLKIKTVKNDILLALAKLLELDEDCLLNQFSDRAITTARFNYYSPCPRPDLVLGLKPHSDLCALTVLLTDKEVGGLQVLRDGTWYSVPAVRDYSLLINIGVTLEIMTNGTFRAPLHRVVTNAERERMSVAMFYAVDGEKEIEPVAELLGLKQQSARYRGIKGKDLLIGHYEHFSRGGRVVDSLKI
B2: ZmHSL2 protein: corn-derived HSL protein, typically a protein having an amino acid sequence of SEQ ID NO: 20 (protein)
chain: MAVESWTVPTPVKDLAALVDEPPSRFVQREEHRPGSLMLAADMPDPLPIVDLNKLSTADEAAKLRSALQTWGLFLATNHGIDASLMEDLMEASREFFHQPLQERQKYSNLREGTRFQLEGYGSDPVVAQDHILDWNDRLQLKVEPEDERSLAQWPKYPESFRDLLHEYASKTKSMRDRILRAMAKILELDEEEFIKQLGASPQAYARFNYYPPCPRPELVLGIKAHSDGPVLTVLLVDREVGGLQVQRENTWFNVPFVPHTLVINLGDSLEIMSNGIFKSPVHRVVTNAEKERISLAMLYAVERDNVLQPAAGLLDEKRPARYRRITEADFLEGVKEHFSKGIRMIETLKI
modifications: Zea mays
B3: SbHSL1 protein: sorghum-derived HSL protein, typically a protein having an amino acid sequence of SEQ ID NO: 22 (protein)
chain: MAGESWKVPTPVKDLAALVEEPPSQFVQREEDRPGSLMLAADMPDPLPIVDLDKMSTADEATKLRSALQTWGLFLATNHGIDVSLMEDLMKASREFFNQPLQERQKYSNLREGTRFQLEGYGSDPVIAQDHILDWSDRLQLKVEPEDERNLAQWPKHPESFRDLLHEYATKTKTVMVKILRAMAKTLELDEEDFIDQIGGRPQAYARFNYYPPCPRPELVLGIKAHSDGPLLTVLLVDREVGGLQIQRENKWFNVPSIPHALVINLGDSLEIMSNGIFKSPVHRVVTNAEKERISLAMLYAVQRDNVLEPAPGLLDEKRPAKYRRITEAHFLEGVKEHFSKGMRMIETLKI
modifications: Sorghum bicolor
B4: HIS1 protein: rice 2-oxoglutarate-dependent dioxygenase, typically a protein having an amino acid sequence of SEQ ID NO: 2 (protein, listed as Oryza sativa)
chain: MADESWRAPAIVQELAAAGVEEPPSRYLLREKDRSDVKLVAAELPEPLPVVDLSRLDGAEEATKLRVALQNWGFFLLTNHGVEASLMDSVMNLSREFFNQPIERKQKFSNLIDGKNFQIQGYGTDRVVTQDQILDWSDRLHLRVEPKEEQDLAFWPDHPESFRDVLNKYASGTKRIRDDIIQAMAKLLELDEDYFLDRLNEAPAFARFNYYPPCPRPDLVFGIRPHSDGTLLTILLVDKDVSGLQVQRDGKWSNVEATPHTLLINLGDTMEVMCNGIFRSPVHRVVTNAEKERISLAMLYSVNDEKDIEPAAGLLDENRPARYRKVSVEEFRAGIFGKFSRGERYIDSLRI

Columns and labels:
Format in all cases: biochemical
[1] = 4-HPPD inhibitor decomposition activity by HPLC, substrate BBC-OH; conditions: for BBC-OH decomposition activity: cell-free synthesized protein, FeCl2, ascorbic acid, 2-oxoglutarate, 30° C. for 3 hours, HPLC
Text: (§1) Then, the decomposition reaction of a 4-HPPD inhibitor was examined in the presence of divalent iron ions, 2-oxoglutarate, and molecular oxygen in a test tube by a method described later using the HIS1 protein prepared by this cell-free protein synthesis system.
(§2) Here, in commercially-available wheat germ extracts, dithiothreitol (DTT) is used as a reducing agent and a protein synthesizing reaction liquid also contains DTT. It was confirmed in advance by liquid chromatography that under the coexistence of divalent iron ions and ascorbic acid, which is a stabilizer for the divalent iron ions, DTT generated radical compounds and secondarily affected the enzyme reaction of HIS1 proteins. For this reason, in the present Example, an unreported protein synthesizing reaction system using Tris (2-carboxyethyl) phosphine (TCEP) as a reducing agent instead of DTT was newly constructed, with which the synthesis of HIS1 proteins and the like was conducted to examine the 4-HPPD inhibitor decomposition activity of these. The decomposition activity was analyzed on the reaction liquid of the protein and the 4-HPPD inhibitor using a high-performance liquid chromatography (mobile phase; 0.5% acetic acid water:acetonitrile=65:35, flow rate; 1 mL/min, feeding; isocratic, column; CAPCELL PAK ADME S5).
Then, the amounts of the synthesized proteins obtained in Examples 1 to 4 as described above were estimated as described below, followed by the analysis on the 4-HPPD inhibitor decomposition activities.
Cell-free protein synthesis was conducted without adding [^14C]-Leucine Leucine under the same conditions as those in the estimation of the synthesized amount to estimate the protein concentration of this translation reaction liquid from the above-described estimation. Then, 100 μl of the translation reaction liquid was subjected to buffer exchange to a basic translation buffer (30 mM HEPES-KOH (pH=7.8), 100 mM KOAc) by using the illustra MicroSpin G-25 column (manufactured by GE Healthcare). The amounts of the solution before and after the buffer exchange were measured and the estimated protein concentration was corrected.
An enzyme reaction liquid was prepared by mixing 250 mM of HEPES-KOH (pH 7.0) with a mixture liquid, which contained 0.25 mM of FeCl2, 1.5 mM of ascorbic acid, 1.5 mM of 2-oxoglutarate, and 0.75 mM of a substrate, and a translation reaction liquid, which contained a synthesized enzyme protein, in a proportion of 40% and 60%, respectively. After incubation at 30° C. for 3 hours, 100% methanol in the same amount as the enzyme reaction liquid was added and sufficiently mixed, followed by being left to stand for 5 minutes on ice. This was subjected to centrifuge separation (20, 400 g, 20 minutes, 4° C.) and the supernatant was passed through Cosmonice Filter W (0.45 μm) (manufactured by Nacalai Tesque, Inc.) to obtain a sample for high-performance liquid chromatography. The analysis on the substrate and the product before and after the enzyme reaction was conducted by loading a column_Pro C18 (150×4.6 mm I.D.) (manufactured by YMC Co., Ltd.) on a high-performance liquid chromatography device_ELITE LaChrom L-2000 series (manufactured by Hitachi, Ltd.). Elution was conducted at a flow speed of 1 mL/min and a column temperature of 40° C. under solvent conditions of acetonitrile:water (1% acetic acid)=55:45 or 50:50 (BBC-OH), acetonitrile:water (1% acetic acid)=45:55 (Sulcotrione), acetonitrile:water (1% acetic acid)=45:55 (Mesotrione), acetonitrile:water (1% acetic acid)=55:45 or 50:50 (tefryltrone), and acetonitrile:water (1% acetic acid)=55:45 or 50:50 (Tembotrione), respectively, and the compound was detected at an ultraviolet wavelength of 286 nm.
(§3) Note that the 5-point scale of the decomposition activity in each of FIGS. 12 to 17 is based on a relative value of the degree of decrease in a substrate-derived peak area detected by HPLC where the degree of decrease in the HIS1 protein was designated by 5. […]

[2] = 4-HPPD inhibitor decomposition activity by HPLC, substrate tefuryltrione
Text: as §1
as §2, with “S5). […]” for “S5).”
(§4) Cell-free protein synthesis was conducted without adding [^14C]-Leucine Leucine under the same conditions as those in the estimation of the synthesized amount to estimate the protein concentration of this translation reaction liquid from the above-described estimation. […] The amounts of the solution before and after the buffer exchange were measured and the estimated protein concentration was corrected. […]
as §3

[3] = 4-HPPD inhibitor decomposition activity by HPLC, substrate sulcotrione
Text: as §1
as §2, with “S5). […]” for “S5).”
as §4, §3

[4] = cell-free synthesized protein, FeCl2, ascorbic acid, 2-oxoglutarate, 30° C. for 3 hours, HPLC

| Molecule | BBC-OH decomposition activity [1] | tefuryltrione decomposition activity [2, 4] | modification product of tefuryltrione by mass analysis ([2]; mass analysis) | modification product of BBC-OH by mass analysis ([1]; mass analysis) | cofactor dependence of the modification of BBC-OH ([1]; not shown) | sulcotrione decomposition activity [3, 4] | modification product of sulcotrione by mass analysis ([3]; mass analysis) |
| --- | --- | --- | --- | --- | --- | --- | --- |
| B1 | only very weak decomposition activity | – | – | – | – | – | – |
| B2 | had the decomposition activity, which was less effective than that of the HIS1 protein | – | – | – | – | – | – |
| B3 | had the decomposition activity, which was less effective than that of the HIS1 protein | – | – | – | – | – | – |
| B4 | high decomposition activity | high decomposition activity | converted into a product with one oxygen atom added | converted into a product with one oxygen atom added | only in the presence of divalent iron ions and 2-oxoglutarate | high decomposition activity | converted into a product with one oxygen atom added |
